Biological target: Arabidopsis thaliana NAP1-related protein 1 (NRP1) (A. thaliana) (UniProt Q9CA59)
Assay: ITC

Chain of Arabidopsis thaliana NAP1-related protein 1 (NRP1) (A. thaliana) (Q9CA59 whole entry): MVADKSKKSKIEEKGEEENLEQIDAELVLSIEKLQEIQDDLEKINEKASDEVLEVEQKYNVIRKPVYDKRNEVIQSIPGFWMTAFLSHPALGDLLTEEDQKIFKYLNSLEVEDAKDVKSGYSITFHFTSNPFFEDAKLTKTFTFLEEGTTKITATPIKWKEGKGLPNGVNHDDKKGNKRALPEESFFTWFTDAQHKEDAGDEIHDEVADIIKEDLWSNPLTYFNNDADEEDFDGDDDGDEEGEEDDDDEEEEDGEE

| dH [kcal/mol] | Kd [µM] | Substance |
| --- | --- | --- |
| -10.4 |  | Xenopus laevis core histone H4 (from UniProt P62799 1-103) (natural protein) |
|  | 0.1 | Chicken erythrocyte H2A–H2B histone dimer (from UniProt P02263 1-129; P0C1H3 1-126) (complex) |
|  | 5 | Arabidopsis thaliana cytochrome c (from UniProt Q9T0G2 1-112) (natural protein) |

From PMC5389710
